B1: ALSSPPPTV (peptide)
peptide: ALSSPPPTV
notes: gene: ZFYVE9
B2: ILVQVIPVV (peptide)
peptide: ILVQVIPVV
notes: gene: IRF6
B3: SLIGGTNFV (peptide)
peptide: SLIGGTNFV
notes: gene: AP1B1
B4: AMASHLTST (peptide)
peptide: AMASHLTST
notes: gene: RBM4
B5: YLDPSLNSL (peptide)
peptide: YLDPSLNSL
notes: gene: CXorf57
B6: VLFGEITRL (peptide)
peptide: VLFGEITRL
notes: gene: NDUFS2
B7: SLATLEGIQL (peptide)
peptide: SLATLEGIQL
notes: gene: ZNF236
B8: YLAGEAPTL (peptide)
peptide: YLAGEAPTL
notes: gene: VARS
B9: ILDISRSEV (peptide)
peptide: ILDISRSEV
notes: gene: GPR107
B10: TLIEDDALNGA (peptide)
peptide: TLIEDDALNGA
notes: gene: HPGD
B11: FLEEKEQAAL (peptide)
peptide: FLEEKEQAAL
notes: genes: TRIM16, CDRT1, TRIM16L
B12: FLGENISNFL (peptide)
peptide: FLGENISNFL
notes: gene: APOL1
B13: ALLDEQQVNV (peptide)
peptide: ALLDEQQVNV
notes: gene: ID1
B14: SLDEKQNLV (peptide)
peptide: SLDEKQNLV
notes: gene: METTL8
B15: ALYPGQLVQL (peptide)
peptide: ALYPGQLVQL
notes: gene: ARHGAP9
B16: RLSQLEGVNV (peptide)
peptide: RLSQLEGVNV
notes: gene as printed: VP535
B17: GLAGPVRGV (peptide)
peptide: GLAGPVRGV
notes: genes: SNURF, SNRPB, SNRPN
B18: TLVTGLASV (peptide)
peptide: TLVTGLASV
notes: gene: MFN1
B19: TLFPSKIGV (peptide)
peptide: TLFPSKIGV
notes: genes: MOB1A, MOB1B
B20: GLDSSVNVQGSVL (peptide)
peptide: GLDSSVNVQGSVL
notes: gene: WTAP
B21: SLATTLTKI (peptide)
peptide: SLATTLTKI
notes: gene: COPB1
B22: KLPEPPPLA (peptide)
peptide: KLPEPPPLA
notes: gene: ERV3-1
B23: YLAPENGYLMEA (peptide)
peptide: YLAPENGYLMEA
notes: gene: SNRNP70
B24: GLLKAYSIRTA (peptide)
peptide: GLLKAYSIRTA
notes: gene: KRT7
B25: QMLELITRL (peptide)
peptide: QMLELITRL
notes: gene: DICER1
B26: SLDSSGFSL (peptide)
peptide: SLDSSGFSL
notes: gene: PARP4
B27: VLFNIDGQGNHV (peptide)
peptide: VLFNIDGQGNHV
notes: gene: GATA3
B28: SLLDFERSL (peptide)
peptide: SLLDFERSL
notes: gene: HPS3
B29: STTNGGILTV (peptide)
peptide: STTNGGILTV
notes: gene: FYTTD1
B30: ILSAILVHL (peptide)
peptide: ILSAILVHL
notes: gene: MROH2A
B31: ILLRDLPTL (peptide)
peptide: ILLRDLPTL
notes: gene: FAM174B
B32: GLSEPIFQL (peptide)
peptide: GLSEPIFQL
notes: gene: MFN1
B33: RLLDFPTLLV (peptide)
peptide: RLLDFPTLLV
notes: gene: MAP10
B34: QLQGYLRSV (peptide)
peptide: QLQGYLRSV
notes: gene: RPL6
B35: FLIDASQRV (peptide)
peptide: FLIDASQRV
notes: gene: COL6A5
B36: YLEPKLTQV (peptide)
peptide: YLEPKLTQV
notes: gene: PSME4
B37: ALNDEINFL (peptide)
peptide: ALNDEINFL
notes: gene: KRT7
B38: VLMDDTDPLV (peptide)
peptide: VLMDDTDPLV
notes: gene: PSMC1
B39: YMLDIFHEVL (peptide)
peptide: YMLDIFHEVL
notes: gene: HAS3
B40: LLDVTPKAV (peptide)
peptide: LLDVTPKAV
notes: gene: TJP2
B41: ILLDTPLFL (peptide)
peptide: ILLDTPLFL
notes: gene: SERHL2
B42: ALWDEFNQL (peptide)
peptide: ALWDEFNQL
notes: gene: TBX1
B43: KLNATNIEL (peptide)
peptide: KLNATNIEL
notes: gene: PSMA5
B44: GLAQDPKSLQL (peptide)
peptide: GLAQDPKSLQL
notes: gene: TTC28
B45: YLTNEGIQYL (peptide)
peptide: YLTNEGIQYL
notes: genes: RPS10-NUDT3, RPS10
B46: VLMDDTDPL (peptide)
peptide: VLMDDTDPL
notes: gene: PSMC1
B47: QLAWFDTDL (peptide)
peptide: QLAWFDTDL
notes: gene: CTNNB1
B48: ILGPQGNTI (peptide)
peptide: ILGPQGNTI
notes: gene: KHDRBS1
B49: VLANRVAVV (peptide)
peptide: VLANRVAVV
notes: gene: DHRS2
B50: YLDPNQRDL (peptide)
peptide: YLDPNQRDL
notes: gene: ZNF573
B51: QIDGTLSTI (peptide)
peptide: QIDGTLSTI
notes: genes: FBXO34, CHMP4C, CHMP4B, CHMP4BP1
B52: FLLPLIIVL (peptide)
peptide: FLLPLIIVL
notes: gene: MR1
B53: IVAPGTFEV (peptide)
peptide: IVAPGTFEV
notes: gene: ILF2
B54: TLTSIIVAV (peptide)
peptide: TLTSIIVAV
notes: gene: MROH2A
B55: YQAPDIDVQL (peptide)
peptide: YQAPDIDVQL
notes: gene: GLTSCR2
B56: IIIPEIQKV (peptide)
peptide: IIIPEIQKV
notes: gene: CSE1L
B57: VIADRVVTV (peptide)
peptide: VIADRVVTV
notes: gene: VWA5B1
B58: RLIDDMVAQA (peptide)
peptide: RLIDDMVAQA
notes: gene: IDH1
B59: GQLDFSEFL (peptide)
peptide: GQLDFSEFL
notes: gene: S100A11
B60: IITKDLFQV (peptide)
peptide: IITKDLFQV
notes: gene: DYNC1H1
B61: LLYPTEITV (peptide)
peptide: LLYPTEITV
notes: gene: ITGA3

The target in this assay is T1, HLA-A*02:01 (human).
T1 construct: MHC monomer first loaded with a UV-sensitive peptide, which is cleaved by UV and exchanged with the test peptide; captured on streptavidin plates; also called peptide-receptive MHC molecules
The assay is described as follows: UV-ligand exchange + anti-b2m ELISA; +++ = peptide exchange yield >50. From the text:
Candidate peptides for T cell based therapies according to the present invention were further tested for their MHC binding capacity (affinity). The individual peptide-MHC complexes were produced by UV-ligand exchange, where a UV-sensitive peptide is cleaved upon UV-irradiation, and exchanged with the peptide of interest as analyzed. Only peptide candidates that can effectively bind and stabilize the peptide-receptive MHC molecules prevent dissociation of the MHC complexes. To determine the yield of the exchange reaction, an ELISA was performed based on the detection of the light chain (β2m) of stabilized MHC complexes. The assay was performed as generally described in Rodenko et al. (Rodenko et al., 2006).
96 well MAXISorp plates (NUNC) were coated over night with 2 ug/ml streptavidin in PBS at room temperature, washed 4× and blocked forth at 37° C. in 2% BSA containing blocking buffer. Refolded HLA-A*02:01/MLA-001 monomers served as standards, covering the range of 15-500 ng/ml. Peptide-MHC monomers of the UV-exchange reaction were diluted 100 fold in blocking buffer. Samples were incubated for 1 h at 37° C., washed four times, incubated with 2 ug/ml HRP conjugated anti-β2m for 1 h at 37° C., washed again and detected with TMB solution that is stopped with […]. Absorption was measured at 450 nm. Candidate peptides that show a high exchange yield (preferably higher than 50%, most preferred higher than 75%) are generally preferred for a generation and production of antibodies or fragments thereof, and/or T cell receptors or fragments thereof, as they show sufficient avidity to the MHC molecules and prevent dissociation of the MHC complexes.
For orientation: ELISA stands for enzyme-linked immunosorbent assay.
Turning to B1, the peptide exchange yield is 50 to 75%. Under B2 stands 50 to 75%.

Take B3: the peptide exchange yield is 50 to 75%. Under B4 stands 50 to 75%; under B5, 50 to 75%; under B6, 50 to 75%. The figure for B7 is 50 to 75%. As to B8, the peptide exchange yield was 50 to 75%. Under B9 stands 50 to 75%; under B10, 50 to 75%. The figure for B11 is 50 to 75%; for B12 it is 50 to 75%. As for B13, the peptide exchange yield was 50 to 75%. Under B14 stands 50 to 75%. Under B15 stands 50 to 75%.

Regarding B16, the peptide exchange yield is 50 to 75%. As to B17, the peptide exchange yield lay in the range of 50 to 75%. Under B18 stands 50 to 75%; under B19, 50 to 75%.

Consider B20, for which the peptide exchange yield lay in the range of 50 to 75%.

As for B21, the peptide exchange yield fell in the range of 50 to 75%. The figure for B22 is 50 to 75%. The figure for B23 is 50 to 75%; for B24 it is 50 to 75%; for B25 it is 50 to 75%. Consider B26, for which the peptide exchange yield was 50 to 75%.

Take B27: the peptide exchange yield fell in the range of 50 to 75%.

Regarding B28, the peptide exchange yield was 50 to 75%. For the molecule B29, the peptide exchange yield was 50 to 75%.

B30: the peptide exchange yield lay within 50 to 75%.

On to B31, for which the peptide exchange yield fell in the range of 50 to 75%. Under B32 stands 50 to 75%; under B33, 50 to 75%; under B34, 50 to 75%. The figure for B35 is 50 to 75%; for B36 it is 50 to 75%. The figure for B37 is 50 to 75%; for B38 it is 50 to 75%. Turning to B39, the peptide exchange yield fell in the range of 50 to 75%.

In the case of B40, the peptide exchange yield fell in the range of 50 to 75%.

In the case of B41, the peptide exchange yield lay in the range of 50 to 75%. Under B42 stands 50 to 75%. B43: the peptide exchange yield was in the range of 50 to 75%. On to B44, for which the peptide exchange yield fell in the range of 50 to 75%. Under B45 stands 50 to 75%.

As for B46, the peptide exchange yield was 50 to 75%.

As for B47, the peptide exchange yield was in the range of 50 to 75%. Under B48 stands 50 to 75%; under B49, 50 to 75%. The figure for B50 is 50 to 75%. The figure for B51 is 50 to 75%.

On to B52, for which the peptide exchange yield was in the range of 50 to 75%. Take B53: the peptide exchange yield is 50 to 75%.

For B54, the peptide exchange yield was 50 to 75%.

Take B55: the peptide exchange yield was in the range of 50 to 75%. Under B56 stands 50 to 75%; under B57, 50 to 75%.

Regarding B58, the peptide exchange yield is 50 to 75%. Under B59 stands 50 to 75%; under B60, 50 to 75%; under B61, 50 to 75%.

The values above are taken from US20170253633A1 (IMMATICS BIOTECHNOLOGIES, published 2017).
